This data set concerns MS2 coat protein. Nature of the data set: apparent KD of MS2 coat protein; designed switch direction (-1 OFF switch, 1 ON switch): -1; higher = weaker reporter binding. The essentials: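 Designed RNA switches with common flanks were made on Illumina chips by stalled E. coli RNA polymerase. Titration with SNAP-549-labelled MS2 coat protein doubled from 0.7 or 1.5 nM up to 3 µM. Apparent KD is each design's median over clusters after curve-fitting normalised fluorescence.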

[1] abbreviates: Eterna round: R95, input ligand: FMN 200 uM.
[2] abbreviates: Eterna round: R95, input ligand: microRNA oligo, concentration not stated.
[3] abbreviates: Eterna round: R95, input ligand: none.
[4] abbreviates: input ligand: microRNA oligo, concentration not stated.

Experimental findings from the supplement of paper PMC9170038 are described below.

Take “CCGGAAUUGGAGGAUAUAGGAGUCGAUAGACACCUAGAAGGUCAGACAUGAGGAUCACCCAUGUGUCCUACCGG [Fiskers Ex 6 - 87] (puzzle: Exclusion 6)”: the “apparent KD of MS2 coat protein” value reads like this: under setting [1], 19.9 nM; under setting [2], 18.3 nM; under setting [3], 17.8 nM.

For “CCGGCGGUAGGAUAUACAAUUGUAAAAGGCAGGUGGUGUCAACAUGAGGAUCACCCAUGUAGAAGGACCUUAAA [EX2 C.26] (Eterna round: R97, puzzle: Exclusion 2)”, the “apparent KD of MS2 coat protein” value (input ligand: FMN 200 uM) is 38.4 nM and the “apparent KD of MS2 coat protein” value (input ligand: none) turned out to be 22.4 nM.

For “CCGGCUUAGGAGGAUAUCAGAGUCGAAAGACUCUGAGAAGGCCUAACAUGAGGAUCACCCAUGUGUCCUACCGG [Mod of Eli 7 - Jieux - Exclusion 6] (Eterna round: R97, puzzle: Exclusion 6)”, the “apparent KD of MS2 coat protein” value (input ligand: FMN 200 uM) was 81.5 nM and the “apparent KD of MS2 coat protein” value (input ligand: none) worked out at 25.1 nM.

As to “CCGGUUGGCGCAGGAUAUACAUGAGGAUCACCCAUGUUCAUGAGCAUCAGCCAUGAGUUUUUGUUGUAGAAGGGUGGCCCGGCC (Eterna round: R96, puzzle: Exclusion NG 2)”, the “apparent KD of MS2 coat protein” value (input ligand: FMN 200 uM) was determined as 19.6 nM, the “apparent KD of MS2 coat protein” value under setting [4] amounted to 15.6 nM and the “apparent KD of MS2 coat protein” value (input ligand: none) is 23.5 nM.

With “CCGUCGAUAGGAUAUACUCCAAGCGAUGGGUGAACCUUUGGACUUGAGGAUCACCCAAGUAGAAGGAUUGACUU [Aorbete] (Eterna round: R97, puzzle: Exclusion 2)”, the “apparent KD of MS2 coat protein” value runs as follows: (input ligand: FMN 200 uM) 122 nM; (input ligand: none) 71 nM.

Regarding “CCUACUUACUAGGAUAUCAGAGUCGAAAGACUCUGAGAAGGAGUAACAUGAGGAUCACCCAUGUGUCCUAUAGG [Mod of Eli 11 - Jieux - Exclusion 6] (Eterna round: R97, puzzle: Exclusion 6)”, the “apparent KD of MS2 coat protein” value reads like this: (input ligand: FMN 200 uM) 52.2 nM; (input ligand: none) 24.2 nM.

Take “CCUAGACAUGAGGAUCACCCAUGUGAGGAUAUGAUGCGAAUAAAGAAAGAAGAAAGCAUCAGAAGGCACAUAUG [Fiskers Ex 1 - 2] (puzzle: Exclusion 1)”: the “apparent KD of MS2 coat protein” value was 130 nM under setting [1], 41.2 nM under setting [2] and 49.4 nM under setting [3].

As for “CCUAGUUGGUAAGGAUAUCCUACACUGUUCUGACCCGUGCAAGCUACAUGAGGAUCACCCAUGUGGGAGAAGGUGCGUCAACGC [Design 12] (Eterna round: R96, puzzle: Exclusion NG 2)”, the “apparent KD of MS2 coat protein” value reads like this: (input ligand: FMN 200 uM) 29 nM; under setting [4], 25.3 nM; (input ligand: none) 29.2 nM.

On to “CCUAUGUGAGGAUAUGGUGUUGGCCACAAGGAAAAGCUCCUCCAGAAGGCACAUGAGGAUCACCCAUGUCGUGG [Jolly's Folly 25 - Jieux - Exclusion 4] (Eterna round: R96, puzzle: Exclusion 4)”, for which the “apparent KD of MS2 coat protein” value by setting is: (input ligand: FMN 200 uM) 212 nM; under setting [4], 48.2 nM; (input ligand: none) 61.1 nM.

Turning to “CCUCAUGGGCAGGAUAUCAGUCGAAAGUUUAUAUGAGAAGGGCCAACAUGAGGAUCACCCAUGUAAUCCCUGAC [EX6 C.14] (Eterna round: R97, puzzle: Exclusion 6)”, the “apparent KD of MS2 coat protein” value (input ligand: FMN 200 uM) was found to be 66.7 nM and the “apparent KD of MS2 coat protein” value (input ligand: none) was 27.8 nM.

Regarding “CCUCUACAUGAGGAUCACCCAUGUGAGGAUAUAGACCGGCCUAACGCGGGCUCGGGAGCUAGAAGGCACAUAGA [EX1 C.7] (Eterna round: R97, puzzle: Exclusion 1)”, the “apparent KD of MS2 coat protein” value is 70.8 nM (input ligand: FMN 200 uM) and 21.8 nM (input ligand: none).

Regarding “CCUCUACAUGAGGAUCACCCAUGUGAGGAUAUCUCGGAACAACCACUUAAGGCACUCCAGAGAAGGCACGUGUA [Onsote] (puzzle: Exclusion 1)”, the “apparent KD of MS2 coat protein” value under setting [2] is 15.5 nM.

As to “CCUUAAAUUGUAAGGAUAUUAAAGCUGCUGAGUUAUAAGAAGGUACAUGAGGAUCACCCAUGUUCGGCAGGGUC [Qulexeri] (puzzle: Brourd's mod of Exclusion 4)”, the “apparent KD of MS2 coat protein” value under setting [2] worked out at 17.1 nM.
